Values quoted from earlier work, collected in patent publication US20160296600A1, “Relaxin Prodrugs” (ASCENDIS PHARMA RELAXIN DIVISION A/S, priority 2013, published 2016).

Conditions: humans, intravenous administration

Q: Which half-life does the source give for “Relaxin: Mature human relaxin, hormonal peptide of approximately 6000 daltons; A-chain SEQ ID NO:1, B-chain SEQ ID NO:2” here?
A: less than 10 minutes
